According to PMC3982999:

Target: human ubiquitin (human) (UniProt P0CG48)
Assay: NMR titration

Kd: < 10 µM
Substance: WT spartin 155-367 (GST tag removed) (from UniProt Q8N0X7 155-367) (domain or fragment)
